Data on 5 molecules can be found in US6914129 (dated 2005).

For experiment [1], the target named is T1, FceRII (CD23, FCEL) (human, UniProt P06734).
T1 chain: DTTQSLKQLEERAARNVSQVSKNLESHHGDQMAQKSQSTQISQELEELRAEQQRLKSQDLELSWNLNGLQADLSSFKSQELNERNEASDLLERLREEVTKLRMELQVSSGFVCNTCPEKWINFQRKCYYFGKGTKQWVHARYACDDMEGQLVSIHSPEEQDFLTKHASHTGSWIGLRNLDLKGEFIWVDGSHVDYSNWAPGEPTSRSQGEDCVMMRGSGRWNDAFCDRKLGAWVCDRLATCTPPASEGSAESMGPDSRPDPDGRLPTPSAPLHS
The experiment in a line: FACS. In general terms: A flow cytometer gives signals particle by particle.

Experiment [2] has as its target T2, FceRI alpha (FCEH) (human, UniProt P12319).
T2 chain: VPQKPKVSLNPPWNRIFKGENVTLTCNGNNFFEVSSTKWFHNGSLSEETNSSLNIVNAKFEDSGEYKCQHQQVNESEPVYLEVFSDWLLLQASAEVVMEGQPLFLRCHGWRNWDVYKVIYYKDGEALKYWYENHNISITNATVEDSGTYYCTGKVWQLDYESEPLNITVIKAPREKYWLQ
The experiment in a line: FACS.

B1: IgE mutant 3 (protein)
chain: ASTQSPSVFPLTRCCKNIPSNATSVTLGCLATGYFPEPVMVTWDTGSLNGTTMTLPATTLTLSGHYATISLLTVSGAWAKQMFTCRVAHTPSSTDWVDNKTFSVCSRDFTPPTVKILQSSCDGGGHFPPTIQLLCLVSGYTPGTINITWLEDGQVMDVDLSTASTTQEGELASTQSELTLSQKHWLSDRTYTCQVTYQGHTFEDSTKKCADSNPRGVSAYLSRPSPFDLFIRKSPTITCLVVDLAPSKGTVNLTWSRASGKPVNHSTRKEEKQRNGTLTVTSTLPVGTRDWIEGETYQCRVTHPHLPRALMRSTTKTSGPRAAPEVYAFATPEWPGSRDKRTLACLIQNFMPEDISVQWLHNEVQLPDARHSTTQPRKTKGSGFFVFSRLEVTRAEWEQKDEFICRAVHEAASPSQTVQRAVSVNPGLAGGSAQSQRAPDRVLCHSGQQQGLPRAAGGSVPHPRCHCGAGRADWPGPPELDVCVEEAEGEAPWTWTGLC
Take B1: the binding result in experiment [1] is reported as “no binding”.

B2: IgE mutant 62 (protein)
chain: ASTQSPSVFPLTRCCKNIPSNATSVTLGCLATGYFPEPVMVTWDTGSLNGTTMTLPATTLTLSGHYATISLLTVSGAWAKQMFTCRVAHTPSSTDWVDNKTFSVCSRDFTPPTVKILQSSCDGGGHFPPTIQLLCLVSGYTPGTINITWLEDGQVMDVDLSTASTTQEGELASTQSELTLSQAHWLSDRTYTCQVTYQGHTFEDSTKKCADSNPRGVSAYLSRPSPFDLFIRKSPTITCLVVDLAPSKGTVNLTWSRASGKPVNHSTRKEEKQRNGTLTVTSTLPVGTRDWIEGETYQCRVTHPHLPRALMRSTTKTSGPRAAPEVYAFATPEWPGSRDKRTLACLIQNFMPEDISVQWLHNEVQLPDARHSTTQPRKTKGSGFFVFSRLEVTRAEWEQKDEFICRAVHEAASPSQTVQRAVSVNPGLAGGSAQSQRAPDRVLCHSGQQQGLPRAAGGSVPHPRCHCGAGRADWPGPPELDVCVEEAEGEAPWTWTGLC
Take B2: the binding result in experiment [1] is reported as “no binding”.

B3: IgE mutant 50 (protein)
chain: ASTQSPSVFPLTRCCKNIPSNATSVTLGCLATGYFPEPVMVTWDTGSLNGTTMTLPATTLTLSGHYATISLLTVSGAWAKQMFTCRVAHTPSSTDWVDNKTFSVCSRDFTPPTVKILQSSCDGGGHFPPTIQLLCLVSGYTPGTINITWLEDGQVMDVDLSTASTTQEGELASTQSELTLSQKHWLSDRTYTCQVTYQGHTFEDSTKKCADSNPRGVSAYLSRPSPFDLFIRKSPTITCLVVDLAPSKGTVNLTWSRASGKPVNHSTRKEEKQRNGTLTVTSTLPVGTRDWIEGETYQCRVTHPHLPRALMRSTTKTSGPRAAPEVYAFATPEWPGSRDKRTLACLIQNFMPEDISVQWLHNEVQLPDARHSTTQPRKTKGSGFFVFSRLEVTRAEWEQKDEFICRAVHEAASPSQTVQRAVSVNPGLAGGSAQSQRAPDRVLCHSGQQQGLPRAAGGSVPHPRCHCGAGRADWPGPPELDVCVEEAEGEAPWTWTGLC
Consider B3, for which, in experiment [1], the binding result is given as “no binding”.

B4: IgE mutant 4 (protein)
chain: ASTQSPSVFPLTRCCKNIPSNATSVTLGCLATGYFPEPVMVTWDTGSLNGTTMTLPATTLTLSGHYATISLLTVSGAWAKQMFTCRVAHTPSSTDWVDNKTFSVCSRDFTPPTVKILQSSCDGGGHFPPTIQLLCLVSGYTPGTINITWLEDGQVMDVDLSTASTTQEGELASTQSELTLSQKHWLSDRTYTCQVTYQGHTFEDSTKKCADSNPRGVSAYLSRPSPFDLFIRKSPTITCLVVDLAPSKGTVNLTWSRASGKPVNHSTRKEEKQRNGTLTVTSTLPVLHQDWLDGKEYQCRVTHPHLPRALMRSTTKTSGPRAAPEVYAFATPEWPGSRDKRTLACLIQNFMPEDISVQWLHNEVQLPDARHSTTQPRKTKGSGFFVFSRLEVTRAEWEQKDEFICRAVHEAASPSQTVQRAVSVNPGLAGGSAQSQRAPDRVLCHSGQQQGLPRAAGGSVPHPRCHCGAGRADWPGPPELDVCVEEAEGEAPWTWTGLC
With B4, the binding result in experiment [2] and in experiment [1] was “no binding” throughout.

B5: IgE mutant 1 (protein)
chain: ASTQSPSVFPLTRCCKNIPSNATSVTLGCLATGYFPEPVMVTWDTGSLNGTTMTLPATTLTLSGHYATISLLTVSGAWAKQMFTCRVAHTPSSTDWVDNKTFSVCSRDFTPPTVKILQSSCDGGGHFPPTIQLLCLVSGYTPGTINITWLEDGQVMDVDLSTASTTQEGELASTQSELTLSQKHWLSDRTYTCQVTYQGHTFEDSTKKCADSNPRGVSAYLSRPSPFDLFIRKSPTITCLVVDLAPSKGTVNLTWSRASGKPVNHSTRKEEKQRNGTLTVTSTLPVGTRDWIEGETYQCRVTHPHLPRALMRSTTKTSGPRAAPEVYAFATPEWPGSRDKRTLACLIQNFMPEDISVQWLHNEVQLPDARHSTTQPRKTKGSGFFVFSRLEVTRAEWEQKDEFICRAVHEAASPSQTVQRAVSVNPGLAGGSAQSQRAPDRVLCHSGQQQGLPRAAGGSVPHPRCHCGAGRADWPGPPELDVCVEEAEGEAPWTWTGLC
In the case of B5, the binding result in experiment [2] and in experiment [1] was “no binding” in each case.
